This passage reports Kd results from publication PMC2577338.

The target in assay [1] is S. cerevisiae ribosomes with L10 R7L (S. cerevisiae) (UniProt P41805).
In assay [2] the target is wild-type S. cerevisiae ribosomes (wild-type L10) (S. cerevisiae) (UniProt P41805).
Assay [3] has as its target S. cerevisiae ribosomes with L10 R7Q (S. cerevisiae) (UniProt P41805).
The target of assay [4] is S. cerevisiae ribosomes with L10 Y11C (S. cerevisiae) (UniProt P41805).
The target in assay [5] is S. cerevisiae ribosomes with L10 R7P (S. cerevisiae) (UniProt P41805).
In assay [6] the target is S. cerevisiae ribosomes with L10 Y9C (S. cerevisiae) (UniProt P41805).
Assay [7] concerns the target S. cerevisiae ribosomes with L10 Y9N (S. cerevisiae) (UniProt P41805).

Usually Kd stands for the free concentration of one partner at which half of the binding sites on the other are occupied at equilibrium, for simple one-to-one binding. Read a high Kd as lower affinity.

Turning to “eEF2 (eukaryotic elongation factor 2) (from UniProt P32324 1-842) (natural protein)”, the Kd was 10.7 nM in assay [1]; 10.8 nM in assay [2]; 6.1 nM in assay [3]; 16.6 nM in assay [4]; 6.6 nM in assay [5]; 5.2 nM in assay [6]. The substance further displayed a Kd in assay [7] of 9.7 nM.
